As a reminder, the stoichiometry N is a count of units in the complex or per binding partner. In general, Kd refers to the constant that tells how readily two partners part at equilibrium. The low end stands for higher affinity, the high end for lower affinity.

The results in this text go back to article PMC3078058 (Nature, 2011).

To fix the notation:
B2: CusA inner membrane RND efflux pump (natural protein, Escherichia coli, UniProt P38054 1-1047, looked up)
chain: MIEWIIRRSVANRFLVLMGALFLSIWGTWTIINTPVDALPDLSDVQVIIKTSYPGQAPQIVENQVTYPLTTTMLSVPGAKTVRGFSQFGDSYVYVIFEDGTDPYWARSRVLEYLNQVQGKLPAGVSAELGPDATGVGWIYEYALVDRSGKHDLADLRSLQDWFLKYELKTIPDVAEVASVGGVVKEYQVVIDPQRLAQYGISLAEVKSALDASNQEAGGSSIELAEAEYMVRASGYLQTLDDFNHIVLKASENGVPVYLRDVAKVQIGPEMRRGIAELNGEGEVAGGVVILRSGKNAREVIAAVKDKLETLKSSLPEGVEIVTTYDRSQLIDRAIDNLSGKLLEEFIVVAVVCALFLWHVRSALVAIISLPLGLCIAFIVMHFQGLNANIMSLGGIAIAVGAMVDAAIVMIENAHKRLEEWQHQHPDATLDNKTRWQVITDASVEVGPALFISLLIITLSFIPIFTLEGQEGRLFGPLAFTKTYAMAGAALLAIVVIPILMGYWIRGKIPPESSNPLNRFLIRVYHPLLLKVLHWPKTTLLVAALSVLTVLWPLNKVGGEFLPQINEGDLLYMPSTLPGISAAEAASMLQKTDKLIMSVPEVARVFGKTGKAETATDSAPLEMVETTIQLKPQEQWRPGMTMDKIIEELDNTVRLPGLANLWVPPIRNRIDMLSTGIKSPIGIKVSGTVLADIDAMAEQIEEVARTVPGVASALAERLEGGRYINVEINREKAARYGMTVADVQLFVTSAVGGAMVGETVEGIARYPINLRYPQSWRDSPQALRQLPILTPMKQQITLADVADIKVSTGPSMLKTENARPTSWIYIDARDRDMVSVVHDLQKAIAEKVQLKPGTSVAFSGQFELLERANHKLKLMVPMTLMIIFVLLYLAFRRVGEALLIISSVPFALVGGIWLLWWMGFHLSVATGTGFIALAGVAAEFGVVMLMYLRHAIEAVPSLNNPQTFSEQKLDEALYHGAVLRVRPKAMTVAVIIAGLLPILWGTGAGSEVMSRIAAPMIGGMITAPLLSLFIIPAAYKLMWLHRHRVRK

The data set “crystal structure” deals with the molecule itself. In words: crystal structure.
Data set [1] addresses B2. The data set is described as follows: ITC. On the technique in general: Isothermal titration calorimetry measures the heat released or taken up as one component is titrated into another.

B1: CusB membrane fusion protein (natural protein, Escherichia coli, UniProt P77239 29-407, looked up)
chain: EPPAEKTSTAERKILFWYDPMYPNTRFDKPGKSPFMDMDLVPKYADEESSASGVRIDPTQTQNLGVKTATVTRGPLTFAQSFPANVSYNEYQYAIVQARAAGFIDKVYPLTVGDKVQKGTPLLDLTIPDWVEAQSEYLLLRETGGTATQTEGILERLRLAGMPEADIRRLIATQKIQTRFTLKAPIDGVITAFDLRAGMNIAKDNVVAKIQGMDPVWVTAAIPESIAWLVKDASQFTLTVPARPDKTLTIRKWTLLPGVDAATRTLQLRLEVDNADEALKPGMNAWLQLNTASEPMLLIPSQALIDTGSEQRVITVDADGRFVPKRVAVFQASQGVTALRSGLAEGEKVVSSGLFLIDSEANISGALERMRSESATHAH
On to B1, for which, in “crystal structure”, the “stoichiometry N” value amounted to 6. Moreover, the Kd in data set [1] was 5.1 ± 0.3 µM. For B2, the “stoichiometry N” value in the data set “crystal structure” came to 3.
